According to patent publication US9492501B2, “Antiviral agent” (priority 2009, dated 2016):

How the values were obtained:
[1] = test system: Microglial cell line; assay: Cell toxicity by MTT method, microglial cell line; type: cell-based; settings: for LD50: microglial line, MTT
Method: (§1) After culture for 24 hours, the toxicity of the protein is evaluated by measuring the number of living cells by the MTT method (3-(4,5-dimethylthiazol-2-yl)-2,5-diphenyl tetrazolium bromide) as described in Berridge et al. Biotechnology Annual Review, 2005, 11, 127-152.
Similar experiments were carried out on microglial lines. Conditions similar to those used for the 1g5 cells were used, with 5.10^5 cells/mL.
(§2) The PBL cells were treated with 0.24 μg/mL, 0.48 μg/mL, 0.96 μg/mL, 2.4 μg/mL, 4.8 μg/mL, 9.6 μg/mL, or 24 μg/mL of HPBP protein. Untreated cells were tested as a control.
The cell toxicity of St. John's wort protein p27^SJ was measured on cells in culture under the conditions described in Example 15. The p27^SJ was tested at doses of 0 μg/mL (control), 0.01 μg/mL, 0.1 μg/mL, 0.5 μg/mL, 1 μg/mL, 5 μg/mL, 10 μg/mL, 20 μg/mL and 40 μg/mL.

[2] = test system: HIV-1 promoter (HIV-1 LTR); assay: HIV-1 transcriptional activity, luciferase test in HIV-LTR Jurkat line; type: cell-based; settings: treatment 24 hours
Excerpt: (§3) Method: a Jurkat CD4+ T lymphocyte cell line (line 1G5) having integrated into its genome a construction comprising a luciferase reporter gene the expression of which is controlled by the HIV-1 promoter (HIV-1 LTR; HIV-LTR Jurkat line) was used. The measurement of luciferase activity from the cell extracts therefore makes it possible to estimate the HIV-1 transcriptional activity.
(§4) The Jurkat HIV-LTR and Jurkat 1G5 lines were transfected by means of the DEAE-dextran technique with the proviral genome NL4.3 (complete HIV-1 genome, strain LAI).
(§5) The HIV-LTR Jurkat and 1G5 Jurkat lines thus infected, are treated 24 hours later with HPBP/PON protein complexes or with purified PON or HPBP proteins at a final concentration of 2 μg/mL of medium (52 nM of protein alone).
(§6) The cells and the cell supernatant are sampled after treatment for 24 hours.
(§7) The transcriptional activity is measured by carrying out a luciferase test. The intensity of the HIV-1 replication is measured by means of ELISA assay of the quantity of viral p24 capsid proteins present in the supernatant of the cell cultures of the infected 1G5 lines [Rohr, O., et al. (2000). The Journal of Biological Chemistry 275, 2654-2660].
An untreated negative control as well as a positive control treated with AZT at a final concentration of 10 μM were carried out in parallel. Each experiment is carried out in triplicate.
In parallel, the infected lymphocyte lines obtained were treated with 10 μg of potato DING protein.
as §3, with “Measurement” for “The measurement”, “activity. […]” for “activity.”
(§8) The transcriptional activity and inhibition of the replication are measured as described in Example 6.

[3] = test system: HIV-1 (proviral genome NL4.3, strain LAI); assay: HIV-1 replication, ELISA of viral p24 capsid protein in supernatant of infected Jurkat 1G5 cells; type: cell-based; settings: treatment 24 hours
Excerpt: as §3, §4, §5, §6
as §7, with “2654-2660]. […]” for “2654-2660].”
as §8

[4] = target: T1, GST-Tat protein (Human immunodeficiency virus type 1 group M subtype B, UniProt P04608); assay: ELISA of in vitro interaction of HPBP and Tat proteins; type: binding, HIV-1; settings: GST-Tat adsorbed on plate, pure HPBP 0.1 nM to 100 mM
T1 construct: made in house
Method: (§9) The combination of the Human Phosphate Binding Protein (HPBP) with the C/EBPβ protein is carried out using an ELISA technique.
In flat-bottom 96-well ELISA plates having a high protein-binding affinity the GST-Tat protein is adsorbed on the support and incubated overnight at 4° C.
(§10) The proteins not bound to the plate are removed by washing with a Phosphate Buffered Saline (PBS) buffer containing 10 mg/mL of Bovine Serum Albumin (BSA).
The wells are saturated with a Phosphate Buffered Saline (PBS) buffer solution containing 20 mg/mL of Bovine Serum Albumin (BSA) for 1 hour at room temperature in order to eliminate the background noise. […]
(§11) Then after a last washing, the plate is incubated with an HRP substrate (3,3′,5,5′-tetramethylbenzidine: TNB in the presence of hydrogen peroxide H2O2). […] The optical density of the product of the reaction is then measured with a spectrophotometer at 450 nm.
The inventors used the Enzyme Linked Immunosorbent Assay (ELISA) technique, suited to studying the interaction between the HPBP protein and the HIV-1 (TAT) protein (Engvall and Perlmann, 1971)). The HIV-1 TAT protein was expressed in the form of a fusion with GST in order to obtain the soluble protein and in quantity (approximately 2 mg/mL). […]

[5] = test system: Peripheral Blood Lymphocyte (PBL) cells; assay: Cell toxicity by MTT method, peripheral blood lymphocytes; type: cell-based; settings: FIG. 11
Method: as §1
Similar experiments were carried out on primary lymphocytes. Conditions similar to those used for the 1g5 cells were used.
as §2

[6] = target: C/EBPβ protein (Homo sapiens, UniProt P17676); assay: ELISA of in vitro interaction of HPBP and C/EBPβ proteins; type: binding; settings: C/EBPβ adsorbed on plate, pure HPBP 0.1 nM to 100 mM
Method: as §9
In ELISA flat-bottom 96-well plates having a high binding affinity for proteins, the C/EBPβ protein is adsorbed on the support and incubated overnight at 4° C.
as §10
The wells are saturated with a Phosphate Buffered Saline (PBS) buffer solution containing 20 mg/mL of Bovine Serum Albumin (BSA) for 1 hour at room temperature in order to remove the background noise.
After washing with a Phosphate Buffered Saline (PBS) solution containing 10 mg/mL of Bovine Serum Albumin (BSA), different solutions of pure HPBP from 0.1 nM to 100 mM are added to the wells for incubation for 1-3 hours at RT.
The plate is once again washed then incubated with mouse monoclonal anti-HPBP antibodies or rabbit polyclonal anti-HPBP antibodies for incubation for 1-3 hours at RT. […]
as §11

[7] = test system: Cell Line R3HR-1G5 (1g5); assay: Cell toxicity by MTT method, cell line R3HR-1G5 (1g5); type: cell-based; settings: 1g5 cells, culture 24 hours, FIG. 10
Method: The cell toxicity of the HPBP protein was measured on cells in culture.
5.10^6 cells/mL of the lymphoid line B 1g5 were seeded on plates and treated, or not treated, with different doses of purified HPBP protein: 0.2 μg/mL, 2 μg/mL, 20 μg/mL, or 90 μg/mL.
The cells are cultured for 24 hours at 37° C.
as §1
Briefly, 10 μL of MTT is added to each culture.
The mixture is added quickly over 1 minute, then the cultures are returned to 37° C. for 4 hours.
The culture supernatant is then aspirated, and the crystals formed by the presence of MTT are dissolved with acetic acid.
The optical density (OD) of each of the cultures is measured at 570 nm using a spectrophotometer.

Chain of C/EBPβ protein (P17676 whole entry, species assumed): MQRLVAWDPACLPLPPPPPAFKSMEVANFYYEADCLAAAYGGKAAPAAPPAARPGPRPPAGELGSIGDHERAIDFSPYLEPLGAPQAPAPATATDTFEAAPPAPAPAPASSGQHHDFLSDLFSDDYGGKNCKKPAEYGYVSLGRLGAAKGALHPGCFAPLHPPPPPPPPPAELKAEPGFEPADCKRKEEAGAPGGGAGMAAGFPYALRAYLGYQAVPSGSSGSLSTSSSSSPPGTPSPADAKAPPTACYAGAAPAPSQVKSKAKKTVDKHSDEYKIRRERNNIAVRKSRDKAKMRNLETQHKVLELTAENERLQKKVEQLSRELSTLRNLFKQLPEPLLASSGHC
T1 sequence (P04608 whole entry): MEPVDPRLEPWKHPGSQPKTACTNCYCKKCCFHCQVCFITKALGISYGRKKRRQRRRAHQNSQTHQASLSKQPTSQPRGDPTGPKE

Row | Molecule | cell toxicity (in words) ([1]; conditions of Example 15, FIG. 12) | cells dead ([1]; dose of 40 μg/mL, FIG. 12) | LD50 ([1]; FIG. 12) | inhibiting effect on transcriptional activity (in words) ([2]; 2 μg/mL, luciferase, FIG. 3) | repressive effect on HIV-1 replication (in words) ([3]; 2 μg/mL, p24, FIG. 4) | interaction of HPBP protein and Tat protein in vitro [4] | LD50 [5] | interaction of HPBP protein and C/EBPβ protein in vitro [6] | transcriptional activity repressed ([2]; 2 μg/mL (52 nM), luciferase, FIG. 3) [%] | inhibits the viral replication by a factor (FIG. 5) ([2]; HPBP 2 μg/mL, FIG. 5 (luciferase activity)) | inhibition of HIV-1 replication ([3]; 2 μg/mL (52 nM), p24 in supernatant, CD4+ T lymphocytes (Jurkat 1G5)) [%] | lethal dose 50% (LD50, dose killing half of the cells) [7]
1 | p27^SJ: St. John's wort protein, SEQ ID NO: 4, 71% sequence homology with SEQ ID NO: 1, excluded from the invention (protein, listed as Hypericum perforatum) MADINGGGATLPQALYQTSGVLTAGFAPYIGVGSGNGKAAFLNNDYTKFQAGVTNKNVHWAGSDSKLSATELSTYASAKQPTWGKLIQVPSVGTAVAIPFNKSGTAAVDLSVSELCGVFSGRITDWSGISGSGRTGAITVVYRSESSGTTELFTRFLNAKCAETGTFNISTTFGTSYTGGLPAGAVSAAGSQGVMTALAGADGGTTYMSPDFAAPTLAGLDDATKVARVGKDVATNTAGVSPAAANVSAAINAVPVPASTEKP | toxicity very clearly less than that of the HPBP protein | approximately 4% | greater than 2.5 μg/mL | – | – | – | – | – | – | – | – | –
2 | PON-1: human paraoxonase (PON1), co-purified with HPBP from plasma and separated on hydroxyapatite (protein) AKLIALTLLGMGLALFRNHQSSYQTRLNALREVQPVELPNCNLVKGIETGSEDLEILPNGLAFISSGLKYPGIKSFNPNSPGKILLMDLNEEDPTVLELGITGSKFDVSSFNPHGISTFTDEDNAMYLLVVNHPDAKSTVELFKFQEEEKSLLHLKTIRHKLLPNLNDIVAVGPEHFYGTNDHYFLDPYLQSWEMYLGLAWSYVVYYSPSEVRVVAEGFDFANGINISPDGKYVYIAELLAHKIHVYEKHANWTLTPLKSLDFNTLVDNISVDPETGDLWVGCHPNGMKIFFYDSENPPASEVLRIQNILTEEPKVTQVYAENGTVLQGSTVASVYKGKLLIGTVFHKALYCEL | – | – | – | does not have such an inhibiting effect | no repressive effect | – | – | – | – | – | – | –
3 | HPBP: human phosphate binding protein, plasma DING protein of 38 kDa, SEQ ID NO: 2, purified from human plasma (protein, listed as Homo sapiens) DINGGGATLPQKLYLTPDVLTAGFAPYIGVGSGKGKIAFLENKYNQFGTDTTKNVHWAGSDSKLTATELATYAADKEPGWGKLIQVPSVATSVAIPFRKAGANAVDLSVKELCGVFSGRIADWSGITGAGRSGPIQVVYRAESSGTTELFTRFLNAKCTTQPGTFAVTTVFANSYSLGLSPLAGAVAAIGSVGVMAADNDVTTAQGRITYISPDFAAPTLAGLDDATKVARTGKGSSSGGGAEGKSPAAANVSAAISVVPLPAAADRGDPNVWTPVFGAVTGGGVVAYPDSGYPILGFTDLIFSECYANATQTGQVRNFFTKHYGTSANDNAAIQANAFVPLPSNWKAAVRASYLTASNALSIGDSAVCGGKGRPE | – | – | approximately 2.5 μg/mL | – | – | capable of interacting in vitro | approximately 5 μg/mL | capable of interacting in vitro | 80 | > 6 | 89 | approximately 20 μg/mL
